According to patent US20260258115A1 (MAPP BIOPHARMACEUTICAL, published 2026):

Assays:
[1] = target: RSV F on RSV subtype A virus (RSV-A2) (Respiratory Syncytial Virus, subtype A, …, UniProt P03420 26-574); assay: cell-based or functional assay
[2] = target: RSV prefusion F (preF), DS-Cav1 stabilized trimer, subtype A (Respiratory Syncytial Virus, subtype A, UniProt P03420 26-513); assay: BLI, IgG on anti-human IgG sensors, 100 nM antigen, apparent KD
[3] = target: RSV postfusion F (postF), F ΔFP trimer, subtype A (Respiratory Syncytial Virus, subtype A, UniProt P03420 26-513); assay: BLI, IgG on anti-human IgG sensors
[4] = target: RSV F on recombinant mKate-RSV A2 virus (Respiratory syncytial virus A2, UniProt P03420 26-574); assay: cell-based or functional assay
[5] = target: RSV F on recombinant mKate-RSV B 18537 virus (Respiratory syncytial virus B 18537, UniProt P13843 26-574); assay: cell-based or functional assay
[6] = target: RSV prefusion F, subtype A (preF, DS-Cav1 trimer) (Respiratory syncytial virus subtype A, UniProt P03420 26-513); assay: BLI, IgG apparent affinity
[7] = target: T1, RSV postfusion F, subtype A (postF, F ΔFP trimer) (Respiratory syncytial virus subtype A, UniProt P03420 26-513); assay: BLI, IgG apparent affinity
T1 construct: also called Postfusion subtype A

[8] = target: T2, RSV postfusion F, subtype B (postF trimer) (Respiratory syncytial virus subtype B, UniProt P13843 26-513); assay: BLI, IgG apparent affinity
T2 construct: also called Postfusion subtype B

Row | Binder | Neutralization IC50 (RSV subtype A) [1] | Kd [2] | binding result [3] | Neut IC50 (ug/ml) subtype A [4] | Neut IC50 (ug/ml) subtype B [5] | Kd [6] | binding result [7] | Kd [8] | Kd [7] | binding result [8]
1 | ADI-41836 (antibody, V domains shown) VH: EVQLLESGAEVKKPGASVKVSCRASGYTFTSNTLHWVRQAPGQGLEWMGWINADNGNTRYSQKFQGRVTITRDTSANTAYMELSSLISEDTAVYYCAREWSGFWSGLNWFEPWGQGTLVTVSS VL: QSVLTQPPSVSGAPGQRVTISCTGSSSNIGSGNDVHWYQQFPGTAPKVLIYVNSIRPSGVSDRFSGSKSGTSASLAITGLRAEDEADYYCQSYDSSLNGVAFGGGTKLTVL | > 25 µg/mL | 5.74 nM | no binding (tested: 100 nM antigen) |  |  |  |  |  |  | 
2 | ADI-21085 (antibody, V domains shown, also called Ab 330) VH: EVQLVETGGGLVKPGGSLRLSCEASGFNFRSYSMNWVRQAPGKGLEWVSSISASSSYINYADSVKGRFTISRDNSKNSLYLQMNSLRAEDTGVYYCARVLVHYYYGMDVWGQGTTVTVSS VL: QSVLTQPPSVSAAPGQRVTISCTGTSSNIGAGYDVHWYQQLPGRAPKLLILGNNNRPSGVPDRFSGSKSGTSASLAITGLQAEDEADYYCQTYDKTLMEIFGGGTKLTVL |  |  |  | 0.1 µg/mL | 0.48 µg/mL | 0.307 nM | no binding | 6.24 nM |  | 
3 | ADI-41820 (antibody, V domains shown, also called Ab 926; Antibody Number 926) VH: EVQLVESGGGVVQPGRSLRLSCAVSGFTFSTYGMHWVRQTPGRGLEWVAVISYDGNHKYYADSVMGRFTISRDNSKDTLYLQVNSLRPEDSAVYYCAKDRIHCPNGVCYVHSSFYGLDVWGQGTTVTVSS VL: QTVVTQEPSLTVSPGGTVTLTCGSSTGAVTSGHYPYWLQQKPGQAPRTLIYDTTNKDSWTPARFSGSLLGGKAALTLSGAQPEDEAQYYCLLSFNGPYWVFGGGTKVTVL | > 25 µg/mL | 64.9 nM | no binding (tested: 100 nM antigen) |  |  |  |  |  |  | 
4 | ADI-41837 (antibody, V domains shown, also called Ab 937; Antibody Number 937) VH: QVQLVQSGAEVKKPGASVKVSCKASGYTFTSYGISWVRQAPGQGLEWMGWISAYSGDTDYAQKLQGRVTMTTDTATSTAYMELRSLRSDDTAVYYCARDAHCSSTNCYIDLGGAPVDYWGQGTLVTVSS VL: DIVLTQTPLSLSVTLGQPASISCRSSQSLVYIDGYTYLNWFQQRPGQSPRRLIYKVSNRDSGVPDRFSGSGSGTDFTLKISRVEAEDVGVYYCMQGAHWPWTFGQGTKVEIK | > 25 µg/mL | 7.09 nM | no binding (tested: 100 nM antigen) |  |  |  |  |  |  | 
5 | ADI-41833 (antibody, V domains shown) VH: EVQLLESGGGLVQPGGSLRLSCAASRFTFSTYAMSWVRQAPGKGLEWVSSISGSGDKTFYTDSVKGRFTISRDNSKNTLYLQMNSLRAEDTAVYYCARESYYELWTGTYPGWELDYWGQGTLVTVSS VL: DIQLTQSPSSLSASVGDRVTITCRASQDISNYLAWYQQKPGKPPKLLIYAASILESGAPSRFSGSGSGTDFTLTISSLQPEDVGTYYCQKSNSAPRPFGQGTKVEIK | 0.02 µg/mL | 0.723 nM | no binding (tested: 100 nM antigen) |  |  |  |  |  |  | 
6 | ADI-21084 (antibody, V domains shown) VH: EVQLVESGAEVKKPGASVTVSCKASGYTFTSNTISWLRQAPGQGLEWLGWVSASNGNTKYAQKFQGRVTMTTDTSATTAYMEVRTLRHDDTAIYYCARDILDMGGFHFDNWGQGTLVTVSS VL: SYVLTQPPSVSVAPGQTARITCGGNNIGNKHVHWYKQKPGQAPVLVVYDDSDRPSGIPERFSGSNSGNTATLTVSRVEAGDEADFYCQVWDNTNDHPVFGGGTKVTVL |  |  |  | 0.14 µg/mL | 0.46 µg/mL | 0.109 nM |  | 22.9 nM | 17.3 nM | 
7 | ADI-43641 (antibody, V domains shown, also called Ab 946; Antibody Number 946) VH: EVQLVESGGGLVKPGGSLRLSCAASGFTFSDYYMSWIRQAPGKGLEWVSYISSSSSYTNYADSVKGRFTISRDNAKNSLYLQMNSLRAEDTAVYYCARDFSGQWLVLGYGMDVWGQGTTVTVSS VL: QSVVTQPPSVSGAPGQRVTISCTGSSSNIGAGYDVHWYQQLPGTAPKLLIYGNSNRPSGVPDRFSGSKSGTSASLAITGLQAEDEADYYCQSYDSSLSGPVFGGGTKLTVL | > 25 µg/mL | 37.5 nM | no binding (tested: 100 nM antigen) |  |  |  |  |  |  | 
8 | ADI-21068 (antibody, V domains shown) VH: QVQLQESGPGLVKPSGTLSLTCVVSGGSIKSHNYWTWVRQPPGKGLEWVGEIYQSGRTNYNPSLNSRVTLSMDKSKNQLSLRLTSVTAADTAVYFCVGGGPFAPYYFQTWGQGTLVTVSS VL: QSVLTQPPSVSGAPGQRVTISCTGSSSNIGAGYDVHWYQQLPGTAPKLLIYNNNNRPSGVPDRFSGSKSGTSASLAITGLQAEDEADYYCQSYDTSLSGYVFGTGTKVTVL |  |  |  | 0.1 µg/mL |  | 0.255 nM |  | 7.85 nM | 15.5 nM | 
9 | ADI-43642 (antibody, V domains shown, also called Ab 947; Antibody Number 947) VH: EVQLLESGGGLVKPGGSLRLSCAASGFTFSSYSMNWVRQAPGKGLEWVSSISSSSSYIYYADSVKGRFTISRDNAKNSLYLQMNSLRAEDTAVYYCARDGADSSYYYYMDVWGKGTTVTVSS VL: QAVVTQPPSVSGAPGQRVTISCTGSSSNIGAGYDVHWYQQLPGTAPKLLIYGNSNRPSGVPDRFSGSKSGTSASLAITGLQAEDEADYYCQSYDSSLSGSVFGGGTKLTVL | > 25 µg/mL | 43.2 nM | no binding (tested: 100 nM antigen) |  |  |  |  |  |  | 
10 | ADI-21083 (antibody, V domains shown) VH: QVQLQESGPGLVKPSGTLSLTCAVSGDSITTSNWWSWVRQPPGKGLEWIGEIYHSGVTRYNPSLKSRLSISLDKSRNQFSLKLSSVTAADTAVYYCARDEALFGHWFDPWGQGTLVTVSS VL: QSVLTQPRSVSGSPGQSVTISCTGSSSDIGSYNYVSWYQQHPGKAPKLMLYDVSKRPSGVPDRFSGSKSVKTASLTISGLQAEDEADYYCCTYAGNSVVFGGGTKLTVL |  |  |  | 0.36 µg/mL | 0.79 µg/mL | 2.25 nM | no binding |  |  | no binding
11 | ADI-41839 (antibody, V domains shown, also called Ab 939; Antibody Number 939) VH: EVQLLESGGGVVQPGGSLRLSCVASGFTFSAYGMHWVRQAPGKGPEWVAMTRSDGNKIYYADSVKGRFTISRDDSKNTLYLEMNSLRPDDTAVYFCAKEVGYGGNSLHYWGQGTLVTVSS VL: SYELIQPPSVSVAPGQTAKITCGGNNIGSKSVHWYQQKPGQAPVLVVFDDSDRPSGIPERFSGSNSGNTATLTISRVEAGDEADYYCQVWDFSSDLWVFGGGTKLTVL | > 25 µg/mL | 7.88 nM | no binding (tested: 100 nM antigen) |  |  |  |  |  |  | 
12 | ADI-41815 (antibody, V domains shown, also called Ab 922; Antibody Number 922) VH: EVQLLESGGGLVKPGGSLRLSCGASGFTFSTSSFNWVRQAPGKGLEWVSSISSTSSYVFYADSVKGRFTVSRDNAQNSLYLQMNSLRAEDTAVYYCARARGVGATIGFDYWGQGTLVTVSS VL: not shown | > 25 µg/mL | 3.21 nM | no binding (tested: 100 nM antigen) |  |  |  |  |  |  | 
13 | ADI-21091 (antibody, V domains shown) VH: QVQLVQSGAEVKKPGESLRISCQYSAYGFSTYWISWVRQLPGKGLEWMGRIDPSDSHTTYSPSFQGHVTLSADKSISTVYLQWSSLKASDTAMYYCARHQEYSGSDLDSWGQGTLVTVSS VL: QPVLTQPPSVSAAPGQRVTISCSGTRSNIGYNFVSWYQQLPGTAPKLLIYDNNKRPSGIPDRFSGSKSGTSATLAITGLQTGDEADYYCGTWDSSLSALFGGGTKVTVL |  |  |  | 0.29 µg/mL | 0.92 µg/mL | 0.749 nM | no binding |  |  | no binding
14 | ADI-41827 (antibody, V domains shown) VH: EVQLSESAGGVVQPGGSLRLTCAASGFSFSTNGMHWVRQAPGKGLEWVAFIRYDGSKKYYAESVKGRFTISREDSNNTLYLQMNSLRPEDTAVYYCAKEDCSGGTCYHERNYYYYGMDVWGQGTTVTVSS VL: QPVLTQPPSLPVSPGQTASITCSGDKLEYKYACWYQHKPGQSPVLVIYQDNKRPSGIPERFSGSNSGNTATLTISGTQPMDEADYYCQAWDSSTVVFGGGTKVTVL | > 25 µg/mL | 0.186 nM | no binding (tested: 100 nM antigen) |  |  |  |  |  |  | 
15 | ADI-21076 (antibody, V domains shown) VH: EVQLVESGGGLVRPGGSLRLSCAASGFTFSSYAMDWVRQAPGKGLEWVSSISASSSFISYTDSVKGRFTISRDNAKNSLFLQMDNVTAEDTAVYYCARDYYESGRYFYGNPFDIWGQGTMVTVSS VL: QPVLTQPPSVSGAPGQRVTISCTGSGSNIGAGFDVHWYQQLPGTAPKLLIYANSDRPSGVPDRFSASKSGTSASLAITGLQAEDEAHYYCQSYDNSLGGLCVFGTGTKLTVL |  |  |  | 0.03 µg/mL | 0.3 µg/mL | 0.219 nM |  | 6.28 nM | 7.34 nM | 
16 | ADI-41838 (antibody, V domains shown, also called Ab 938; Antibody Number 938) VH: EVQLLESGGGVVQPGRSLRLSCAASEFTFRSYAMHWVRQAPGMGLEWVAVTPYDGISKYYADSVKGRFTISRDNSKNTLYLQMNSLRPEDTAVYYCARGFPEPITSWPGYFYAMDVWGQGTTVTVSS VL: QSALTQPASVSGSPGQSITISCTGTTSDVGVYNYVSWYQQHPGKAPKLMIYDVSNRPSGVSNRFSGSKSGNTASLTISGLQAEDEADYYCSSYTNSDTPVVFGGGTKLTVL | > 25 µg/mL | 32.1 nM | no binding (tested: 100 nM antigen) |  |  |  |  |  |  | 
